Measured values from patent US20090311714.

T1: L-Ala-D-iGlu-L-Lys-D-Ala (not fully specified)
T1 chain: AEKA

T2: GlcNAc-MurNAc-L-Ala-D-iGlu-L-(N-epsilon-D-iAsn)Lys-D-Ala (not fully specified)
T2 chain: AEKA

T3: GlcNAc-MurNAc-L-Ala-D-iGln-L-(N-epsilon-D-iAsn)Lys-D-Ala
T3 chain: AQKA

T4: GlcNAc-MurNAc-L-Ala-D-iGln-L-Lys-D-Ala
T4 chain: AQKA

T5: UDP-MurNAc-L-Ala-D-iGlu-L-Lys-D-Ala (not fully specified)
T5 chain: AEKA

T6: N-alpha,N-epsilon-diacetyl-L-lysyl-D-alanine
T6 chain: KA

B1: L,D-transpeptidase of Enterococcus faecium M512 (Ldtfm), soluble recombinant fragment, residues 119 to 466, with C-terminal polyhistidine tag (protein)
chain: MAEKQEIDPVSQNHQKLDTTVQTLTTKLTDLNKDRTPTTDATIEKAGDSFVIKPEVNGNTIDVDAAVKQLKSAVNSGKDTIELTEFKEKPKVTSEDSSLKEQLASMNAIANVKATYSINGETFQIPSSDIMSWLTYNDGKVDLDTEQVRQYVTDLGTKYNTSTNDTKFKSTKRGEVTVPVGTYSWTIQTDSETEALKKAILAGQDFTRSPIVQGGTTADHPLIEDTYIEVDLENQHMWYYKDGKVALETDIVSGKPTTPTPAGVFYVWNKEEDATLKGTNDDGTPYESPVNYWMPIDWTGVGIHDSDWQPEYGGDLWKTRGSHGCINTPPSVMKELFGMVEKGTPVLVFGSHHHHHH
B2: D-aspartate ligase of Enterococcus faecium (Aslfm) (protein)
chain: MMNSIENEEFIPILLGSDMNVYGMARSFNEAYGKICQAYASDQLAPTRYSKIVNVEVIPGFDKDPVFIETMLRLAKERYSDKSKKYLLIACGDGYAELISQHKQELSEYFICPYIDYSLFERLINKVSFYEVCEEYDLPYPKTLIVREEMLVNGHLEQELPFEFPVALKPANSVEYLSVQFEGRKKAFILETREEFDLILGRIYEAGYKSEMIVQDFIPGDDSNMRVLNAYVDEDHQVRMMCLGHPLLEDPTPASIGNYVVIMPDYNEKIYQTIKAFLEKIEYTGFANFDMKYDPRDGEYKLFEINLRQGRSSFFVTLNGLNLARFVTEDRVFNKPFVETTYGTNQSDKARLWMGVPKKIFLEYARENEDKKLAEQMIKENRYGTTVFYEKDRSIKRWLLMKYMFHNYIPRFKKYFHVKEG

Legend:
[1] = biological target: GlcNAc-MurNAc-L-Ala-D-iGlu-L-(N-epsilon-D-iAsn)Lys-D-Ala-D-Ala
L-Ala-D-iGlu-L-Lys-D-Ala = biological target: T1, L-Ala-D-iGlu-L-Lys-D-Ala
[2] = biological target: UDP-MurNAc-L-Ala-D-iGlu-L-Lys-D-Ala-D-Ala
[3] = biological target: T2, GlcNAc-MurNAc-L-Ala-D-iGlu-L-(N-epsilon- …)
[4] = biological target: T3, GlcNAc-MurNAc-L-Ala-D-iGln-L-(N-epsilon- …)
[5] = biological target: T4, GlcNAc-MurNAc-L-Ala-D-iGln-L-Lys-D-Ala
[6] = biological target: T5, UDP-MurNAc-L-Ala-D-iGlu-L-Lys-D-Ala
[7] = biological target: L-Ala-D-iGlu-L-Lys-D-Ala-D-Ala
[8] = biological target: T6, N-alpha,N-epsilon-diacetyl-L-lysyl-D-ala …

Protein	formation of radioactive peptides in the exchange assay with D-[14C]Ala as the acceptor [1]	formation of radioactive peptides in the exchange assay with D-[14C]Ala as the acceptor (L-Ala-D-iGlu-L-Lys-D-Ala)	formation of radioactive peptides in the exchange assay with D-[14C]Ala as the acceptor [2]	formation of radioactive peptides in the exchange assay with D-[14C]Ala as the acceptor [3]	formation of dimers, by mass spectrometry (in vitro L,D-transpeptidation) [4]	formation of dimers, by mass spectrometry (in vitro L,D-transpeptidation) [5]	formation of radioactive peptides in the exchange assay with D-[14C]Ala as the acceptor [6]	formation of radioactive peptides in the exchange assay with D-[14C]Ala as the acceptor [7]	formation of radioactive peptides in the exchange assay with D-[14C]Ala as the acceptor [8]	formation of [14C]UDP-MurNac-hexapeptide in the D-aspartate ligase assay [2]
B1	Formation of radioactive peptides was not detected	Formation of radioactive peptides was observed ... with other donors containing a tetrapeptide ending in D-Ala	Formation of radioactive peptides was not detected	Formation of radioactive peptides was observed ... also with the complete disaccharide-tetrapeptide(iAsn) peptidoglycan unit	formation of dimers with two types of donors (tetrapeptide and tetrapeptide-iAsn) and two types of acceptors (tetrapeptide-iAsn and tripeptide-iAsn) in the four possible combinations	formation of dimers with two types of donors (tetrapeptide and tetrapeptide-iAsn) ...; The muropeptide containing an unsubstituted tetrapeptide stem was not used as an acceptor	Formation of radioactive peptides was observed ... with other donors containing a tetrapeptide ending in D-Ala	Formation of radioactive peptides was not detected	Formation of radioactive peptides was observed not only with Ac2-L-Lys-D-Ala	
B2										Addition of 2 µg of purified protein in the D-aspartate ligase assay resulted in the formation of a radioactive product corresponding to the labeled hexapeptide
